Test results reported in PMC10726252, “Structure and biochemical characterization of L-2-hydroxyglutarate dehydrogenase and its role in the pathogenesis of L-2-hydroxyglutaric aciduria” (The Journal of Biological Chemistry, 2023).
Changes are numbered by the printed parent chain. Names may count otherwise.

B1: Drosophila melanogaster L-2-hydroxyglutarate dehydrogenase (dmL2HGDH), residues 41-455 (enzyme, UniProt Q9VJ28 41-455, looked up)
chain: GDYDLVVVGGGIVGAASAREIVLRHPSLKVAVLEKECKLAKHQSGHNSGVIHAGIYYKPGTLKARLCVEGMHLAYAYLDEKKIPYKKTGKLIVATDEKEVKLLKDLEKRGIANNVPDLRMIEGSEIQEIEPYCQGVMALHSPHTGIVDWGLVTEHYGQDFKQCGGDIYLDFNVSKFTETKEGTDYPVTIHGAKPGQTVRTKNVLTCGGLQSDLLAEKTGCPRDPRIVPFRGEYLLLTKEKQHMVKGNIYPVPDPRFPFLGVHFTPRMDGSIWLGPNAVLALKREGYTWGDINLFELFDALRYPGFVKMASKYIGFGLSEMSKSWFINLQIKALQKYIPDITEYDIQRGPAGVRAQAMDLDGNLVDDFVFDRGQGSGALAKRVLHCRNAPSPGATSSLAIAKMIADKIENEFSIGK
notes: L-2-hydroxyglutarate dehydrogenase, Drosophila melanogaster, residues 41-455; the N-terminal 1 to 40 residues (mitochondrial-targeting peptide) removed; Gene synthesized by Sangon Biotech; also called WT dmL2HGDH; truncated dmL2HGDH; source: E. coli BL21 Codon-Plus (DE3)-RIPL, purified (Ni-NTA, tag removal by ULP1, Superdex 200); not shown: His6, N-terminal, cleaved; SUMO, N-terminal, cleaved
B2: dmL2HGDH (Drosophila melanogaster; S88A) (protein)
chain: B1 chain with S48A
notes: residues 41-455, mitochondrial-targeting peptide (1-40) removed; N-terminal His6-SUMO tag cleaved by ULP1; E. coli; tetramer about 178 kDa
B3: dmL2HGDH (Drosophila melanogaster; R393A) (protein)
chain: B1 chain with R353A
notes: as for B2

How the values were obtained:
[1] = molecular target: dmL2HGDH with Cys77 substituted by alanine (Drosophila melanogaster) (UniProt Q9VJ28); experiment: not stated; tetrameric state of the Cys77 to alanine mutant in solution (Fig. S11E)
dmL2HGDH [2] = molecular target: T1, dmL2HGDH (Drosophila melanogaster, UniProt Q9VJ28); experiment: inhibition of L-2-HG oxidation, DCIP reduction at […] nm; format: biochemical; details: read-out: % inhibition at 10 mM
T1 construct: gene L2HGDH; residues 41-455, mitochondrial-targeting peptide (1-40) removed; N-terminal His6-SUMO tag cleaved by ULP1; E. coli; tetramer about 178 kDa

dmL2HGDH [3] = molecular target: T1, dmL2HGDH; experiment: crystal structure, […] Å; absorbance at […] nm; format: binding; details: FAD co-purified from E. coli expression
[4] = molecular target: the molecule itself; experiment: SEC-MALS; protein solution 2 mg/ml on Superdex 200 10/300; 20 mM Hepes pH 7.4, 200 mM NaCl; 0.4 ml/min
purified protein = substrate: O=C(O)CC[C@H](O)C(=O)O; experiment: purified protein; format: biochemical, Drosophila melanogaster; details: 200 μM phenazine methosulfate, 100 μM DCIP, 50 mM Hepes pH 7.5, about 25 °C, corrected for FAD occupancy

Row | Molecule | Km (purified protein) [µM] | Vmax (purified protein) [µmol/min/mg] | kcat (purified protein) [s⁻¹] | kcat/Km (purified protein) [M⁻¹ s⁻¹] | also measured
1 | dmL2HGDH with Cys77 substituted by alanine (from UniProt Q9VJ28 41-455) (enzyme) | – | – | – | – | stoichiometry N [1]: 4
2 | O=C(O)C[C@H](O)C(=O)O [L-MAL] | – | – | – | – | inhibition at 10000 µM (dmL2HGDH [2]): < 30%
3 | Cc1cc2nc3c(=O)[nH]c(=O)nc-3n(C[C@H](O)[C@H](O)[C@H](O)COP(=O)(O)OP(=O)(O)OC[C@H]3O[C@@H](n4cnc5c(N)ncnc54)[C@H](O)[C@@H]3O)c2cc1C [FAD] | – | – | – | – | crystal structure, 2.85 Å; absorbance at 450 nm (dmL2HGDH [3]): In each monomer, there are an FAD bound at the active site
4 | B1 | 130 ± 8 | 10.2 | 7.76 ± 0.11 | 59700 | stoichiometry N [4]: 4
5 | B2 | 560 ± 150 | 1.56 | 1.19 ± 0.13 | 2130 | –
6 | B3 | 240 ± 30 | 5.68 | 4.34 ± 0.15 | 18100 | –
